This is an account of results in PMC8041747.

The assay deals with full-length 13-lined ground squirrel TRPV1 (13-lined ground squirrel (Ictidomys tridecemlineatus)). Description: cryo-EM structure; purified sqTRPV1 in 150 mM NaCl, 20 mM Tris pH 8.0, 1 mM βME, 0.01% GDN; apo, with 50 μM RTX or with 300 μM capsaicin.

The substance “full-length 13-lined ground squirrel TRPV1 (natural protein)” returned a stoichiometry N of 4 subunits.

As usually defined, the stoichiometry N is the number of molecules, sites or subunits per partner or assembly.
